Measurements: the supplement of paper PMC9170038

Tested on: MS2 coat protein
Assay: apparent KD of MS2 coat protein; designed switch direction (-1 OFF switch, 1 ON switch): -1; higher = weaker reporter binding
Method in brief: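 The apparent KD reported per design is the median over clusters of curve fits to normalised cluster fluorescence. The RNA switches were transcribed on Illumina chips by stalled E. coli RNA polymerase. SNAP-549-labelled MS2 coat protein was titrated from 0.7 or 1.5 nM, doubling up to 3 µM, in Tris-HCl pH 7.5 buffer containing KCl, MgCl2, BSA, DTT, tRNA and Tween-20, with no input, 200 uM small-molecule ligand, or an oligonucleotide input.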

[1] = Eterna round: R95, input ligand: microRNA oligo, concentration not stated
[2] = input ligand: microRNA oligo, concentration not stated
[3] = Eterna round: R95, input ligand: FMN 200 uM
[4] = Eterna round: R95, input ligand: none

CAGUACUGAGGAUAUACAUGAGGAUCACCCAUGUGUUCCAGCUAGGAAACUAGCGAAAGUAGAAGGCAGUACUG [salish99_ex3_r3_068] (puzzle: Exclusion 3)
apparent KD of MS2 coat protein [1]: 22.9 nM

UUGCAGUCGUCAGGAUAUAGUAUUACGGCCAUUUAUAUUUUCAUACAUGAGGAUCACCCAUGUCGCUAGAAGGGAUUAUCGAUU [salish99_ExNG2_r04_101] (Eterna round: R96, puzzle: Exclusion NG 2)
apparent KD of MS2 coat protein (input ligand: FMN 200 uM): 49.7 nM | apparent KD of MS2 coat protein [2]: 40.4 nM | apparent KD of MS2 coat protein (input ligand: none): 53.4 nM

GAUAGGGCAGGAUAUCGAGAUCCGCACAUGAGGAUCACCCAUGUUCGGUCGAAAGACCGACGAGAAGGGCCGUAUC [Omei Ex5 E6] (Eterna round: R97, puzzle: Exclusion 5)
apparent KD of MS2 coat protein (input ligand: FMN 200 uM): 698 nM | apparent KD of MS2 coat protein (input ligand: none): 536 nM

AAGAUGUGAGGAUAUCACGAGAACGUCACACGGACGCUCUCUGAGAAGGCACAUGAGGAUCACCCAUGUCCAAC [EX4 A.21] (Eterna round: R97, puzzle: Exclusion 4)
apparent KD of MS2 coat protein (input ligand: FMN 200 uM): 207 nM | apparent KD of MS2 coat protein (input ligand: none): 47.2 nM

UCUCCCUGGCAAGGAUAUCCUGUGCGGUUCCGGCUCGUGUCUGUUACAUGAGGAUCACCCAUGUGGGAGAAGGUGCCUGUGGCU [Design 92] (Eterna round: R96, puzzle: Exclusion NG 2)
apparent KD of MS2 coat protein (input ligand: FMN 200 uM): 346 nM | apparent KD of MS2 coat protein [2]: 93.7 nM | apparent KD of MS2 coat protein (input ligand: none): 143 nM

GGUGCGUUUGUGAGGAUAUGCUGGUCCUUGGUUCGGCAGAAGGCACAUGAGGAUCACCCAUGUGGUGUCGUGCC [salish99_Bmod_Ex4_045] (puzzle: Brourd's mod of Exclusion 4)
apparent KD of MS2 coat protein [1]: 33.1 nM

AGUAAGCUAGGAUAUGCUUUGGGAAAGCAUUCCUUCGAUAAACUUGAGGAUCACCCAAGUAGAAGGAGCUUACA [salish99_ex2_r4_004] (Eterna round: R97, puzzle: Exclusion 2)
apparent KD of MS2 coat protein (input ligand: FMN 200 uM): 20.2 nM | apparent KD of MS2 coat protein (input ligand: none): 13.8 nM

AAGUAGACGGUGAGGAUAUAGGUGGAAUGACCCAUUUAGAAGGUACAUGAGGAUCACCCAUGUGGGUAACGUCG [Brourd's EX4 #28] (Eterna round: R97, puzzle: Brourd's mod of Exclusion 4)
apparent KD of MS2 coat protein (input ligand: FMN 200 uM): 156 nM | apparent KD of MS2 coat protein (input ligand: none): 166 nM

ACAAGAGCGGAAGGAUAUUUUACAUGAGGAUCACCCAUGUAAUAAAUGAGGAUCACGGAUGUAGUAAAGAAGGUCCGGAUAAGA [Ostracism 2 - Jieux - Exclusion NG 2] (Eterna round: R96, puzzle: Exclusion NG 2)
apparent KD of MS2 coat protein [2]: 18.4 nM

CUGGCUUAGAGAGGAUAUGACAUUCAAGCCUACCCUGGCCACGGGCCACAUGAGGAUCACCCAUGUCAGAAGGCUCAGGCCAGA [Enorri] (Eterna round: R96, puzzle: Exclusion NG 2)
apparent KD of MS2 coat protein (input ligand: FMN 200 uM): 61.7 nM | apparent KD of MS2 coat protein [2]: 25.5 nM | apparent KD of MS2 coat protein (input ligand: none): 32.8 nM

GUUUGACAUGAGGAUCACCCAUGUAAGGAUAUACGAGUAGCUACUAGGUAGUUAGUAUGUAGAAGGUACGUGUU [EX1 #65] (Eterna round: R97, puzzle: Exclusion 1)
apparent KD of MS2 coat protein (input ligand: FMN 200 uM): 50.4 nM | apparent KD of MS2 coat protein (input ligand: none): 40.3 nM

AGUAACCGGGCUUUUUGCUACAUGAGGAUCACCCAUGUUUAAGCGGAGGGAUUGAUCGUCCUAAAUUCUUUAGUCGG [Eternabot (L2) Solution 8] (Eterna round: R97, puzzle: Sensor, turn-off variant 1)
apparent KD of MS2 coat protein (input ligand: FMN 200 uM): 16.8 nM | apparent KD of MS2 coat protein (input ligand: none): 17.4 nM

AGUACUAACACGAUAGUGUUAGUACUAUAAGCUUGUGUUACAUGAGGAUCACCCAUGUCCUCAUAAGCUCGUCUUAG [Mat - Sensor v3 - Turn-off var 2 - D66] (puzzle: Sensor v3, turn-off variant 2)
apparent KD of MS2 coat protein [3]: 39.8 nM | apparent KD of MS2 coat protein [1]: 83.2 nM | apparent KD of MS2 coat protein [4]: 41.6 nM

AAACGGCGGACCGUGGCUUUUUGCUCGUCUUGUGCUUCGACAUGAGGAUCACCCAUGUGGUGGUGGUCCGUUGUAAA [Grok-var2-15 mod JAL] (puzzle: Sensor v3, turn-off variant 2)
apparent KD of MS2 coat protein [3]: 48.3 nM | apparent KD of MS2 coat protein [1]: 40.3 nM | apparent KD of MS2 coat protein [4]: 80.3 nM

CGGUGUAGAGGAUAUACGUGAAUUUUGUUAUUUUUUAAUUUACAUGAGGAUCACCCAUGUAGAAGGCUAUAGCG [JR_Ex2_Sub086] (Eterna round: R97, puzzle: Exclusion 2)
apparent KD of MS2 coat protein (input ligand: FMN 200 uM): 23.4 nM | apparent KD of MS2 coat protein (input ligand: none): 21.9 nM

CGUGCGUAUGUGAGGAUAUGCUGGUCCUUGGAUCAGCAGAAGGCACAUGAGGAUCACCCAUGUGGUGUCGUACA [salish99_Bmod_Ex4_016] (puzzle: Brourd's mod of Exclusion 4)
apparent KD of MS2 coat protein [1]: 198 nM

ACAUGUGUUGUAGGAUAUAGUGGACAUGAGGAUCACCCAUGUUGAUUCAUGUCUAUGGAAACGUACUAGAAGGACGACAAUAUG [Ex NG2 #18] (Eterna round: R96, puzzle: Exclusion NG 2)
apparent KD of MS2 coat protein (input ligand: FMN 200 uM): 806 nM | apparent KD of MS2 coat protein [2]: 875 nM | apparent KD of MS2 coat protein (input ligand: none): 1050 nM

AAUAUACAUGUAGGAUAUCUGCACGUUUAGUGCAGAGAAGGACAUGAGGAUCACCCAUGUAAUUAAGAUCAAUUAUUAAAUAUU [ENG1/3-B2] (Eterna round: R96, puzzle: Exclusion NG 1)
apparent KD of MS2 coat protein (input ligand: FMN 200 uM): 437 nM | apparent KD of MS2 coat protein [2]: 39.6 nM | apparent KD of MS2 coat protein (input ligand: none): 63 nM

GCUAGAGCAGGAUAUUCAAAACCUCACAUGAGGAUCACCCAUGUGGCCGAAAGGCCGGGAGGAGAAGGGCUCUAGC [Mat - Exclusion 5 - Eli mod - D84] (Eterna round: R96, puzzle: Exclusion 5)
apparent KD of MS2 coat protein (input ligand: FMN 200 uM): 42.4 nM | apparent KD of MS2 coat protein [2]: 14.3 nM | apparent KD of MS2 coat protein (input ligand: none): 19.4 nM

GGUUGGCGAGGAUAUACAUGAGGAUCACCCAUGUGAGAGAAAAAAGUGAGAACGAAAAGUAGAAGGCGCUGACG [salish99_ex3_r3_057] (puzzle: Exclusion 3)
apparent KD of MS2 coat protein [3]: 272 nM | apparent KD of MS2 coat protein [1]: 122 nM | apparent KD of MS2 coat protein [4]: 76.9 nM

GUCGUGACCAAGGAUAUAGCUAGGGAAGGAAAGUUAGAAGGUGGUACAUGAGGAUCACCCAUGUAGUCCACAAA [Dixeatleve] (puzzle: Exclusion 6)
apparent KD of MS2 coat protein [3]: 13.1 nM | apparent KD of MS2 coat protein [1]: 13 nM | apparent KD of MS2 coat protein [4]: 12.9 nM

UAUAAAACAUAGGAUAUCGAAUAUAUCAUUUAACGAGAAGGAUGAACAUGAGGAUCACCCAUGUGGUAUCAUGG [Mat - Exclusion 6 - JL Mod - D8] (puzzle: Exclusion 6)
apparent KD of MS2 coat protein [3]: 286 nM | apparent KD of MS2 coat protein [1]: 262 nM | apparent KD of MS2 coat protein [4]: 172 nM

GGCCCUAGGGUCAGAUGCACAAGCUUUUUGCUCGUUUUAACAUGAGGAUCACCCAUGUCUAGUGGAUCUGAUCGGGU [Indiso] (puzzle: Sensor v3, turn-off variant 2)
apparent KD of MS2 coat protein [3]: 18.2 nM | apparent KD of MS2 coat protein [1]: 48.7 nM | apparent KD of MS2 coat protein [4]: 17.4 nM

AACCCUCGUCAAGGAUAUACAUAGAAAAGCUUGGUAGAAGGUGACAUGAGGAUCACCCAUGUAAAAGGCCUGUCCAUUCAGGCC [Isonce] (Eterna round: R96, puzzle: Exclusion NG 1)
apparent KD of MS2 coat protein (input ligand: FMN 200 uM): 96.4 nM | apparent KD of MS2 coat protein [2]: 67.8 nM | apparent KD of MS2 coat protein (input ligand: none): 78.1 nM

ACGAUGAUCGAAAAGUGUAAACUAACAUGAGGAUCACCCAUGUAGGAUAUGGCUACGAAAAGUAGUCAGAAGGGCAUGUCAUCA [3 Av mod - 2] (Eterna round: R96, puzzle: Exclusion NG 3)
apparent KD of MS2 coat protein (input ligand: FMN 200 uM): 24 nM | apparent KD of MS2 coat protein [2]: 13.2 nM | apparent KD of MS2 coat protein (input ligand: none): 20.3 nM

AAAAGCAAGCAAAGAUUCUACAUGAGGAUCACCCAUGUGCUCGUCUUAUAAAGUACUAUCACGAAAGUGAUAGUACA [Sensor 3, v1 - 42] (puzzle: Sensor v3, turn-off variant 1)
apparent KD of MS2 coat protein [3]: 26 nM | apparent KD of MS2 coat protein [1]: 142 nM | apparent KD of MS2 coat protein [4]: 19.7 nM

CCAAGCUAAAUCAUUAACAACAUGAGGAUCACCCAUGUGUAAGCAAUUAUGUUUGGGCUCUUUAGUGCUCGUCUUAU [JR_STOV1_Sub043] (Eterna round: R97, puzzle: Sensor, turn-off variant 1)
apparent KD of MS2 coat protein (input ligand: FMN 200 uM): 15.7 nM | apparent KD of MS2 coat protein (input ligand: none): 16.3 nM

UACAUGAGGAUCACCCAUGUUUUGUCGUGUAUGGUAUUUAUCUAGGAUAUCACGUUAUUUAUUUAUGAGAAGGAGAAUAUUAAU [JMF's solution 26] (Eterna round: R96, puzzle: Exclusion NG 3)
apparent KD of MS2 coat protein (input ligand: FMN 200 uM): 38.9 nM | apparent KD of MS2 coat protein [2]: 17.1 nM | apparent KD of MS2 coat protein (input ligand: none): 39 nM

GCACGGAGUGCAGGAUAUCUGUGCGAUUAGCUCAGAGAAGGGCACAUGAGGAUCACCCAUGUGUAUAAAACACAAAAUCCGUGC [Eli exng1 - 066] (Eterna round: R96, puzzle: Exclusion NG 1)
apparent KD of MS2 coat protein (input ligand: FMN 200 uM): 22.1 nM | apparent KD of MS2 coat protein [2]: 10.2 nM | apparent KD of MS2 coat protein (input ligand: none): 14.5 nM

GCCGAUUAAGUGAGGAUAUACCUAUGGAUACAUAGGUAGAAGGCACAUGAGGAUCACCCAUGUUCCUUAACGGC [Fiskers BMX 4 - 7] (puzzle: Brourd's mod of Exclusion 4)
apparent KD of MS2 coat protein [1]: 10.5 nM

GUGUACCGAGGAUAUGCUGGAAUCUAGCGAAGCUAGGUUCCACAUGAGGAUCACCCAUGUAGAAGGUGGUACAC [Dot plot directed A v7] (puzzle: Exclusion 2)
apparent KD of MS2 coat protein [1]: 55.5 nM

AGCAAGUUAAGGUUGAUGCACAUGAGGAUCACCCAUGUUCGUCUUACAUGGAAAGUGGACGCGUUUAUGGAAAGGAG [Eternabot (L2) Solution 36] (Eterna round: R97, puzzle: Sensor, turn-off variant 1)
apparent KD of MS2 coat protein (input ligand: FMN 200 uM): 28.2 nM | apparent KD of MS2 coat protein (input ligand: none): 28.2 nM

UUUUCUUUUGUGAGGAUAUACUUGUUUUUUUUUUUGUAGAAGGCACAUGAGGAUCACCCAUGUUUUCUUUCCUG [JR_BME4_Sub025] (puzzle: Brourd's mod of Exclusion 4)
apparent KD of MS2 coat protein [1]: 20.1 nM

CGUUGAUGAGGAUAUCGAUGUUAGUACAUGAGGAUCACCCAUGUUAUCCAAGUGUCGGAUCGAGAAGGUAUUGGAC [LRO-Ex5-19] (puzzle: Exclusion 5)
apparent KD of MS2 coat protein [1]: 241 nM
